This is an account of results in PMC9506717.

For this data set the following is noted: glycan lost.

Regarding Spike: N603/657Q, the expression_or_secretion result is “no change”. On to Spike: N616Q, for which the expression_or_secretion entry is “no change” and the “other: viral entry” value was “decreases”. Regarding Spike: N657Q, the expression_or_secretion result is listed as “no change”.

Consider Spike: N61Q, for which the expression_or_secretion result is recorded as “no change” and the “other: Spike incorporation into virions” value is recorded as “decreases”. As for Spike: N603Q, the expression_or_secretion result is on record as “no change”. For the substance Spike: N61Q/N657Q, the “other: Spike incorporation into virions” value was “decreases”. In the case of Spike: N801Q, the expression_or_secretion result is “no change” and the “other: Spike incorporation into virions” value is reported as “decreases”. For Spike: N61/603/657Q the same measures were “no change” and “decreases”.

With Spike: N61/603/657 triple mutant, the “other: Spike incorporation into virions” value is on record as “decreases”. For Spike: N61/657Q, the expression_or_secretion entry was “no change” and the “other: Spike incorporation into virions” value was “decreases”.
